Measured values reported in US12674174B2, “Protoporphyrinogen oxidase (PPO) resistance plant” (PLANTARC BIO LTD., priority 2022, dated 2026).

B1: SEQ ID NO: 6: PPO from Rhizopus sp. Protein. (protein, listed as Rhizopus sp.)
chain: MSSVAILGGGISGLSAAYYLARMAPPTTKITLIEGKKRLGGWIESRRVTPGHYDNIHQLPKNNSKENTILFEAGPRTLRPEGSNGAILLEMIRHLELNNENLMSVSKSHPSARHRYIYYKDKINTLPSDLQSFLLNKPPVLKSVPLAALLEPLKPSRFDKDGIAKDGIQDESIYSFMTRRFNEHTAIHLMGAVIHGIYAGDIKSLSLQSTLRSLYEAERIYGSAVLGMMKGASQVTTSVRERGMAARSRKEDPEWFGRMEKMSVIGFKSGMDTLPHQITSWLEQCPNVEVITDDPAEHIEIAHENKIKTQKGKTVHADHIISTLPSPVLERLVQHQPVLPHLSYNPSADVAVVNLAYSPDEMKLQYDGFGFLTPHRDTPYGNPLPGTLGVVFDSNALPIESERAVKLTAMIGGSDWKDAFGNVPIDELEPKVALDYTRKAVGTFLDIHAEPRYSMVNLQKQCIPQYLVGHQDRMLSLHHAIKKNYGHALSVSGASYLGVSVPDCIKNSRMLVEELLVSGALGSRQKVVTGLGKLEEQPTVDEMRDNARLSRGNTSVIMKS
B2: SEQ ID NO: 2: PPO from Aspergillus sp. Protein. (protein, listed as Aspergillus sp.)
chain: MRLPCASSRAFRQVRAPLALLHRGQRHAVHTKQFDAAVIGGGITGLTAAYQLSRDPSCSKVTLYEKSSHLGGWLSSEQIPVPGGHVVFEYGPRTLRTSSPSCLPMMDLIMNLDLLDDVLICDKKSPAAQNRYIYYPDHLVRLPFPPTEGLLKTAWTLLMEPLFETFLYSAIFEKPKRAENTHILSRDESVADFVSRRFSPKISENLASAVMAGIFAGDVNRLSAEMAIGYVRELEKRYGSIVDGMMTQRASEMRAMPMDELLALESVAVPSHSDDRYWKSLRAVVTDASVLTLKNGLGQLTDAMAAQLRSSRNVEVVTGTEVTSLSQNPKTQDLTIGFGKNESRTHNRVIATHAPSSLARQIQNTKVGVVPSDTIRDLGQNNYAVTVMVVNLYYEDPDLVPVEGFGYLLPSSVPFEQNPERALGVIFGSQSSEGQDTAPGTKLTVIMGGHLWDGWSESDYPDPDKAIEMAQALLHRHLGIKTAPSVARARLLRDAIPQYTVGHLSRMKELSHSVRSDFHKRLTLAGAWYGTVGIGVVDCIRQGYLASSYGVGSKKLGPGNSRRPWTKHDFHNWELEGGIATSPVRFDNVHVTERQHY

Experiments:
[1] = tested on: transgenic Arabidopsis plants; assay type: in vivo; conditions: for level of resistance against Aurora (in words): Aurora 0.01% to 0.5%, compared to control plants; for level of resistance to Strike, more tolerant to treatment as compared to control plants: Strike 0.01% to 1%, 5 orders of magnitude
From the text: (SEQ ID NO: 8 was cloned from SEQ ID NO: 1, SEQ ID NO: 9 was cloned from SEQ ID NO: 2, SEQ ID NO: 10 was cloned from SEQ ID NO: 3, SEQ ID NO: 11 was cloned from SEQ ID NO: 4, SEQ ID NO: 12 was cloned from SEQ ID NO: 5, SEQ ID NO: 13 was cloned from SEQ ID NO: 6 SEQ ID NO: 14 was cloned from SEQ ID NO: 7). […] FIG. 1B summarizes the results of the three experiments described hereinabove.

Arabidopsis plants = conditions: yes/no

Row | Molecule | level of resistance against Aurora (in words) [1] | level of resistance to Strike, more tolerant to treatment as compared to control plants [1] | High concentration herbicide tolerance (Arabidopsis plants; Table 1) | Herbicide tolerance (Arabidopsis plants; Table 2, FIG. 6C legend: Star 1.25 kg/hectare)
1 | B1 | very high levels of resistance | about 10^5 |  | 
2 | B2 | very high levels of resistance | about 10^5 | yes | yes
